Test results published in patent US20220047695A1.
Values joined by “and” are separate entries in the source; they are usually repeats but may differ in a detail not shown here. Identical values can stand only once.

Target: IgE-GLT1-NP (IgE leader, lumazine synthase, linker, eOD-GT8; self-assembling 60mer nanoparticle) (Aquifex aeolicus lumazine synthase fused to HIV-1 gp120 fragment)
Assay: immunogold TEM of muscle sections from mice immunized with DNA-encoded IgE-GLT1-NP (VRC01 + anti-human 6 nm gold)

Q: With VRC01 antibody (NIH AIDS Reagent) as the substance, how does the visible copies of VRC01 binding read?
A: The visible copies of VRC01 binding was 11 copies and 17 copies.
